Laboratory results taken from the supplement of paper PMC9112550, “Optimization of the antimicrobial peptide Bac7 by deep mutational scanning” (BMC Biology, 2022).

Tested on: Escherichia coli TOP10
Assay: shrunken log2 fold change of peptide-encoding DNA abundance (4.5 h post-induction vs induction); higher = less antimicrobial activity (less host growth inhibition)
Settings: time post-induction: 4.5 h; library: site-saturation at positions 5, 18, 19, 20
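Also: peptides expressed intracellularly from a pBAD plasmid library in pooled LB shake-flask culture, induced with 0.3% L-arabinose, DNA abundance read by NGS, three biological replicates, DESeq2 with apeglm shrinkage.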

RRIRGRPPRLPRPRPRPAGKPRP
shrunken log2 fold change: 0.338

RRIRPRPPRLPRPRPRPMCLPRP
shrunken log2 fold change: -0.0489

RRIRWRPPRLPRPRPRPNVCPRP
shrunken log2 fold change: 0.0917

RRIRMRPPRLPRPRPRPNFVPRP
shrunken log2 fold change: 0.0215

RRIRCRPPRLPRPRPRPMRQPRP
shrunken log2 fold change: 0.076

RRIRIRPPRLPRPRPRPRVWPRP
shrunken log2 fold change: 0.618

RRIRCRPPRLPRPRPRPRRYPRP
shrunken log2 fold change: -0.0183

RRIRLRPPRLPRPRPRPVFPPRP
shrunken log2 fold change: 0.263

RRIRRRPPRLPRPRPRPFHHPRP
shrunken log2 fold change: -0.0883

RRIRFRPPRLPRPRPRPREKPRP
shrunken log2 fold change: -0.0136

RRIRWRPPRLPRPRPRPTKGPRP
shrunken log2 fold change: 0.469

RRIRTRPPRLPRPRPRPLYYPRP
shrunken log2 fold change: -0.771

RRIRSRPPRLPRPRPRPPEEPRP
shrunken log2 fold change: -0.0451

RRIRKRPPRLPRPRPRPWRNPRP
shrunken log2 fold change: -0.0406

RRIRNRPPRLPRPRPRPEPNPRP
shrunken log2 fold change: 0.0829

RRIRIRPPRLPRPRPRPWQPPRP
shrunken log2 fold change: -0.0185

RRIRLRPPRLPRPRPRPFHKPRP
shrunken log2 fold change: -0.54

RRIRLRPPRLPRPRPRPIHIPRP
shrunken log2 fold change: -0.374

RRIRQRPPRLPRPRPRPNYRPRP
shrunken log2 fold change: 0.0444

RRIRWRPPRLPRPRPRPREGPRP
shrunken log2 fold change: 1.28

RRIRNRPPRLPRPRPRPPQPPRP
shrunken log2 fold change: 0.621

RRIRYRPPRLPRPRPRPSYIPRP
shrunken log2 fold change: -1.4

RRIRTRPPRLPRPRPRPARNPRP
shrunken log2 fold change: 0.199

RRIRPRPPRLPRPRPRPIHKPRP
shrunken log2 fold change: -0.561

RRIRTRPPRLPRPRPRPLCNPRP
shrunken log2 fold change: -0.484

RRIRLRPPRLPRPRPRPQNNPRP
shrunken log2 fold change: -0.585

RRIRKRPPRLPRPRPRPHQWPRP
shrunken log2 fold change: 0.264

RRIRYRPPRLPRPRPRPSLQPRP
shrunken log2 fold change: -0.126

RRIRIRPPRLPRPRPRPDTVPRP
shrunken log2 fold change: -0.301

RRIRQRPPRLPRPRPRPWGNPRP
shrunken log2 fold change: 0.0303

RRIRWRPPRLPRPRPRPTTGPRP
shrunken log2 fold change: 0.384

RRIRDRPPRLPRPRPRPTLDPRP
shrunken log2 fold change: 0.784

RRIRHRPPRLPRPRPRPNYPPRP
shrunken log2 fold change: -0.32

RRIRHRPPRLPRPRPRPDRSPRP
shrunken log2 fold change: -0.0222

RRIRGRPPRLPRPRPRPVIGPRP
shrunken log2 fold change: 0.388

RRIRYRPPRLPRPRPRPDNYPRP
shrunken log2 fold change: -0.175

RRIRDRPPRLPRPRPRPFPTPRP
shrunken log2 fold change: 0.0231

RRIRCRPPRLPRPRPRPFMVPRP
shrunken log2 fold change: -0.502

RRIRVRPPRLPRPRPRPNAIPRP
shrunken log2 fold change: 0.0894

RRIRHRPPRLPRPRPRPYPHPRP
shrunken log2 fold change: -0.495

RRIRNRPPRLPRPRPRPENMPRP
shrunken log2 fold change: -0.262

RRIRERPPRLPRPRPRPFNRPRP
shrunken log2 fold change: -0.0972

RRIRCRPPRLPRPRPRPVQVPRP
shrunken log2 fold change: -0.164

RRIRLRPPRLPRPRPRPRIKPRP
shrunken log2 fold change: -0.168

RRIRKRPPRLPRPRPRPPKEPRP
shrunken log2 fold change: 0.944

RRIRHRPPRLPRPRPRPISNPRP
shrunken log2 fold change: -0.779

RRIRIRPPRLPRPRPRPKVFPRP
shrunken log2 fold change: 0.0502

RRIRLRPPRLPRPRPRPQPMPRP
shrunken log2 fold change: 0.216

RRIRHRPPRLPRPRPRPESHPRP
shrunken log2 fold change: -0.0331

RRIRSRPPRLPRPRPRPIMFPRP
shrunken log2 fold change: -0.304

RRIRVRPPRLPRPRPRPCRCPRP
shrunken log2 fold change: -0.239

RRIRHRPPRLPRPRPRPQFRPRP
shrunken log2 fold change: -0.0324

RRIRRRPPRLPRPRPRPQSLPRP
shrunken log2 fold change: -0.0788

RRIRERPPRLPRPRPRPKISPRP
shrunken log2 fold change: 0.000121

RRIRMRPPRLPRPRPRPDDDPRP
shrunken log2 fold change: -0.00152

RRIRKRPPRLPRPRPRPGARPRP
shrunken log2 fold change: 0.962

RRIRRRPPRLPRPRPRPTIDPRP
shrunken log2 fold change: -0.0234

RRIRQRPPRLPRPRPRPVITPRP
shrunken log2 fold change: -0.414

RRIRERPPRLPRPRPRPTHDPRP
shrunken log2 fold change: -0.141

RRIRVRPPRLPRPRPRPAAKPRP
shrunken log2 fold change: 0.348

RRIRTRPPRLPRPRPRPWMCPRP
shrunken log2 fold change: 0.0404

RRIRNRPPRLPRPRPRPCLKPRP
shrunken log2 fold change: -0.315

RRIRNRPPRLPRPRPRPTLFPRP
shrunken log2 fold change: 0.0912

RRIRIRPPRLPRPRPRPTIIPRP
shrunken log2 fold change: -0.848

RRIRKRPPRLPRPRPRPIRAPRP
shrunken log2 fold change: 0.14

RRIRWRPPRLPRPRPRPQFGPRP
shrunken log2 fold change: 0.0671

RRIRFRPPRLPRPRPRPEQYPRP
shrunken log2 fold change: -0.234

RRIRSRPPRLPRPRPRPVNTPRP
shrunken log2 fold change: -0.691

RRIRDRPPRLPRPRPRPQVVPRP
shrunken log2 fold change: 0.0572

RRIRDRPPRLPRPRPRPNQPPRP
shrunken log2 fold change: 0.0323

RRIRERPPRLPRPRPRPCKRPRP
shrunken log2 fold change: -0.294

RRIRQRPPRLPRPRPRPHMRPRP
shrunken log2 fold change: 0.36

RRIRPRPPRLPRPRPRPGLRPRP
shrunken log2 fold change: 3.24

RRIRQRPPRLPRPRPRPSAFPRP
shrunken log2 fold change: -0.247

RRIRSRPPRLPRPRPRPMMKPRP
shrunken log2 fold change: 1.75

RRIRGRPPRLPRPRPRPHFSPRP
shrunken log2 fold change: -0.115

RRIRMRPPRLPRPRPRPADFPRP
shrunken log2 fold change: 0.0087

RRIRLRPPRLPRPRPRPYIHPRP
shrunken log2 fold change: -1.05

RRIRYRPPRLPRPRPRPTNCPRP
shrunken log2 fold change: -1.27

RRIRLRPPRLPRPRPRPQGKPRP
shrunken log2 fold change: 0.0467

RRIRVRPPRLPRPRPRPEQWPRP
shrunken log2 fold change: 0.149

RRIRNRPPRLPRPRPRPLYCPRP
shrunken log2 fold change: -0.793

RRIRSRPPRLPRPRPRPHSLPRP
shrunken log2 fold change: 0.0616

RRIRIRPPRLPRPRPRPVIAPRP
shrunken log2 fold change: -0.388

RRIRWRPPRLPRPRPRPWNRPRP
shrunken log2 fold change: 0.066

RRIRHRPPRLPRPRPRPMSEPRP
shrunken log2 fold change: 0.0594

RRIRTRPPRLPRPRPRPCQLPRP
shrunken log2 fold change: -0.161

RRIRCRPPRLPRPRPRPFWPPRP
shrunken log2 fold change: 0.161

RRIRFRPPRLPRPRPRPEMVPRP
shrunken log2 fold change: -0.143

RRIRKRPPRLPRPRPRPMVGPRP
shrunken log2 fold change: 0.0659

RRIRFRPPRLPRPRPRPMNQPRP
shrunken log2 fold change: -0.528

RRIRIRPPRLPRPRPRPNFIPRP
shrunken log2 fold change: -0.327

RRIRYRPPRLPRPRPRPNTRPRP
shrunken log2 fold change: -0.703

RRIRFRPPRLPRPRPRPMRVPRP
shrunken log2 fold change: 0.973

RRIRIRPPRLPRPRPRPIINPRP
shrunken log2 fold change: -1.15

RRIRTRPPRLPRPRPRPIQLPRP
shrunken log2 fold change: -0.122

RRIRRRPPRLPRPRPRPYLCPRP
shrunken log2 fold change: -0.404

RRIRRRPPRLPRPRPRPAWCPRP
shrunken log2 fold change: 0.568

RRIRCRPPRLPRPRPRPKFFPRP
shrunken log2 fold change: 0.0952

RRIRGRPPRLPRPRPRPKSTPRP
shrunken log2 fold change: 1.41

RRIRSRPPRLPRPRPRPGDHPRP
shrunken log2 fold change: -0.338

RRIRWRPPRLPRPRPRPEHSPRP
shrunken log2 fold change: 0.114

RRIRYRPPRLPRPRPRPSSSPRP
shrunken log2 fold change: -0.166

RRIRARPPRLPRPRPRPIHPPRP
shrunken log2 fold change: 0.0444

RRIRMRPPRLPRPRPRPGEDPRP
shrunken log2 fold change: 0.118

RRIRQRPPRLPRPRPRPEAKPRP
shrunken log2 fold change: 0.0428

RRIRVRPPRLPRPRPRPVDWPRP
shrunken log2 fold change: 0.403

RRIRHRPPRLPRPRPRPTPIPRP
shrunken log2 fold change: 0.226

RRIRSRPPRLPRPRPRPYVKPRP
shrunken log2 fold change: -0.351

RRIRCRPPRLPRPRPRPRWAPRP
shrunken log2 fold change: 0.453

RRIRYRPPRLPRPRPRPSRIPRP
shrunken log2 fold change: 0.0535

RRIRFRPPRLPRPRPRPYHVPRP
shrunken log2 fold change: 0.0272

RRIRSRPPRLPRPRPRPIIIPRP
shrunken log2 fold change: -0.159

RRIRHRPPRLPRPRPRPYWSPRP
shrunken log2 fold change: -0.171

RRIRIRPPRLPRPRPRPQCIPRP
shrunken log2 fold change: -0.37

RRIRHRPPRLPRPRPRPSICPRP
shrunken log2 fold change: 0.0424

RRIRIRPPRLPRPRPRPPWVPRP
shrunken log2 fold change: 0.0988

RRIRKRPPRLPRPRPRPSSAPRP
shrunken log2 fold change: 0.214

RRIRVRPPRLPRPRPRPNVNPRP
shrunken log2 fold change: -0.494

RRIRPRPPRLPRPRPRPYDNPRP
shrunken log2 fold change: -0.415

RRIRCRPPRLPRPRPRPESYPRP
shrunken log2 fold change: -0.336

RRIRDRPPRLPRPRPRPTFTPRP
shrunken log2 fold change: 0.347

RRIRRRPPRLPRPRPRPTSWPRP
shrunken log2 fold change: 1.52

RRIRNRPPRLPRPRPRPEEIPRP
shrunken log2 fold change: -0.000921

RRIRMRPPRLPRPRPRPGTYPRP
shrunken log2 fold change: -0.163
